# Experimental data: patent publication US20120321591A1 (COVX TECHNOLOGIES IRELAND, published 2012)
# Bridges are numbered along the chain shown (N, C = ends). Where no end group is shown, it is not given here. [ ]: non-standard residue; d: D form. Phe(4-NO2) = N[C@@H](Cc1ccc([N+](=O)[O-])cc1)C(=O)O; Phe(4-COOH) = N[C@@H](Cc1ccc(C(=O)O)cc1)C(=O)O; Bpa = N[C@@H](Cc1ccc(C(=O)c2ccccc2)cc1)C(=O)O; Hyp = O=C(O)[C@@H]1C[C@@H](O)CN1; 0P linker = not defined here; 4P linker = not defined here; ThA = not defined here
# T1: human angiopoietin-2 protein (human, UniProt O15123 19-496)
# T1 construct: also called Ang-2; Ang2
# T1 sequence (looked up): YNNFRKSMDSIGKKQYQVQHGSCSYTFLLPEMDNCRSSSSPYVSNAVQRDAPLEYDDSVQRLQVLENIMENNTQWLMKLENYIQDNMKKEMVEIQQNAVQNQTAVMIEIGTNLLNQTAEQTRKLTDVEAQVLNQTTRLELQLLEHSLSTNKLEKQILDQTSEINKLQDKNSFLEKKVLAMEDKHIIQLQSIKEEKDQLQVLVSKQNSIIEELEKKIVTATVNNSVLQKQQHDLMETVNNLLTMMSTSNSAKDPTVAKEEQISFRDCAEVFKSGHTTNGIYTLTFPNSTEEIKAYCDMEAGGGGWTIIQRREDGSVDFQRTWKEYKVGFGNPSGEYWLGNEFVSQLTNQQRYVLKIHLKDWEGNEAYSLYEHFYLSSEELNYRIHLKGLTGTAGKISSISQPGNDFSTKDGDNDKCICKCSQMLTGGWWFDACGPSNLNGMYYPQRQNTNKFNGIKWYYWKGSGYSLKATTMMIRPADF
# Target: T1, human angiopoietin-2 protein
# Assay: competitive ELISA: Tie-2-Fc binding to coated Ang-2; T
# Description: (§1) Plates were washed three times with washing buffer (0.1% Tween 20, PBS, pH 7.4) and blocked with Superblock (Scytek), […] at room temperature (“RT”) for 1 hour. […] Plates were washed 3 times with washing buffer. […] Following incubation, 50 ul of 1:5,000 dilution of goat anti-mouse IgG-HRP in Superblock was then added and incubated at RT for one hour. After washing 3 times, […] was added, and incubated for 3-5 minutes. Color development was monitored and stopped with 25 μl of 2 M H₂SO₄. OD450 nm with a correction wavelength of 540 nm was measured.
row,Binder,IC50 [nM]
1,"QNYQPLDELDK(4P linker)TLYDQFMLQQG-NH2 (reading uncertain; also: N-terminal acyl cap, printed as QNY QPL DEL DK(4P)T LYD QFM LQQ G, also called 4025 T) [Compound 4025, peptide plus linker (T)]",300
2,"QXYQPLDELDKTXYDQFMLQQG (N-terminal acyl cap; C-terminal amino cap; Kac 2; 0P linker on K11; HF 13, also called 4039 T) [Compound 4039, peptide plus linker (T)]",4890
3,"QXYQPLDELDKTXYDQFMLQQG (N-terminal acyl cap; C-terminal amino cap; Kac 2; 0P linker on K11; HL 13, also called 4042 T) [Compound 4042, peptide plus linker (T)]",1340
4,"QXYQPLDELDKTXYDQFMLQQG (N-terminal acyl cap; C-terminal amino cap; Kac 2; 0P linker on K11; Nva 13, also called 4041 T) [Compound 4041, peptide plus linker (T)]",1340
5,"QK(Ac)YQPLDEK(Ac)DKTL[Phe(4-COOH)]DQFMLQQG-NH2 (not fully specified (residue 11, N-terminus), also called 4062 T) [Compound 4062, peptide plus linker (T)]",499
6,"QXYQPLDELDXTLYDQFMLQQG (N-terminal acyl cap; C-terminal amino cap; Kac 2; 0P linker on Dab 11, also called 4054 T) [Compound 4054, peptide plus linker (T)]",292
7,"QXYQPLDEKDXTLYDQFMLQQG (N-terminal acyl cap; C-terminal amino cap; Kac 2; 0P linker on K9; Kac 11, also called 4030 T) [Compound 4030, peptide plus linker (T)]",279
8,"QXYQPLDELDXTLYDQFMLQQG (not fully specified; N-terminal acyl cap; C-terminal amino cap; Kac 2; 0P linker on Dap 11, also called 4055 T) [Compound 4055, peptide plus linker (T)]",598

# More lines, now with the values ahead:
row,IC50 [nM],Binder
1,224,"QXYQXLDELDKTLYDQFMLQQG (not fully specified; N-terminal acyl cap; C-terminal amino cap; Kac 2; D(HP) 5; 0P linker on K11, also called 4034 T) [Compound 4034, peptide plus linker (T)]"
2,134,"XQXYQPLDELDKTLYDQFMLQQG (Amido 2-PEG at N-terminus; C-terminal amino cap; Kac 2; 0P linker on K11, also called 4052 T) [Compound 4052, peptide plus linker (T)]"
3,121,"QXYQXLDELDKTLYDQFMLQQG (N-terminal acyl cap; C-terminal amino cap; Kac 2; HP 5; 0P linker on K11, also called 4035 T) [Compound 4035, peptide plus linker (T)]"
4,110,"QNYQPLDELDKTL[Phe(4-COOH)]DQFMLQQG-NH2 (not fully specified (residue 11, N-terminus); also: N-terminal acyl cap, acyl not given here, also called 4057 T) [Compound 4057, peptide plus linker (T)]"
5,92.2,"QNYQPLDELDKTL[Bpa]DQFMLQQG-NH2 (not fully specified (residue 11, N-terminus); also: N-terminal acyl cap, acyl not given here, also called 4056 T) [Compound 4056, peptide plus linker (T)]"
6,83.9,"QXYQPLDELDKTLYDQFMLQQG (not fully specified; N-terminal acyl cap; C-terminal amino cap; Nick 2; 0P linker on K11, also called 4061 T) [Compound 4061, peptide plus linker (T)]"
7,83.3,"QXYQPLDELDKTLYDQFMLQQG (N-terminal acyl cap; C-terminal amino cap; Kac 2; 0P linker on K11, also called 4029 T) [Compound 4029, peptide plus linker (T)]"
8,82.7,"QK(Ac)YQ[Hyp]LDE[ThA]DK(0P linker)TL[Bpa]DQFMLQQG-NH2 (not fully specified; reading uncertain; also: N-terminal acyl cap, acyl not given here) [Compound 4046, peptide plus linker (T)]"
9,82.4,"QK(Ac)YQPLDEK(Ac)DK(0P linker)TL[Phe(4-NO2)]DQFMLQQG-NH2 (reading uncertain; also: N-terminal acyl cap, acyl not given here, printed as Q(Kac)Y QPL DE(Kac) DK(0P)T L(NO2)FD QFM LQQ G, also called 4048 T) [Compound 4048, peptide plus linker (T)]"
10,43.3,"QK(Ac)YQ[Hyp]LDE[ThA]DK(0P linker)TL[Phe(4-COOH)]DQFMLQQG-NH2 (not fully specified; reading uncertain; also: N-terminal acyl cap, acyl not given here, also called 4047 T) [Compound 4047, peptide plus linker (T)]"
11,33,"XQXYQPLDELDKTLYDQFMLQQG (DFB at N-terminus; C-terminal amino cap; Kac 2; 0P linker on K11) [Compound 4050, peptide plus linker (T)]"
12,28.4,"XQXYQPLDELDKTLYDQFMLQQG (DCB at N-terminus; C-terminal amino cap; Kac 2; 0P linker on K11, also called 4049 T) [Compound 4049, peptide plus linker (T)]"
13,24.7,"QK(Ac)YQ[Hyp]LDE[ThA]DK(0P linker)TL[Phe(4-NO2)]DQFMLQQG-NH2 (not fully specified; reading uncertain; also: N-terminal acyl cap, acyl not given here, also called 4045 T) [Compound 4045, peptide plus linker (T)]"
14,14.3,"XQXYQPLDELDKTLYDQFMLQQG (PyC at N-terminus; C-terminal amino cap; Kac 2; 0P linker on K11, also called 4051 T) [Compound 4051, peptide plus linker (T)]"

# Target: T1, human angiopoietin-2 protein
# Assay: competitive ELISA: Tie-2-Fc binding to coated Ang-2; peptide alone
# Description: as §1
row,IC50 [nM],Binder
1,41.9,QXYQPLDELDKTLYDQFMLQQG (N-terminal acyl cap; C-terminal amino cap; Kac 2) [Compound 4022]
2,27.8,QNYQPLDELDKTLYDQFMLQQG-NH2 (also: N-terminal acyl cap) [Compound 4023]
3,25.8,QKYQPLDELDKTLYDQFMLQQG-NH2 (also: N-terminal acyl cap) [Compound 4021]

# Target: T2, recombinant human VEGF165 (human, UniProt P15692-4 27-191)
# T2 construct: also called rhVEGF165
# Assay: competition ELISA: VEGF165 binding to coated VEGFR2/Fc; normalized value
# T2 sequence (P15692 other isoform, or with tags, fused parts or gaps limits assumed): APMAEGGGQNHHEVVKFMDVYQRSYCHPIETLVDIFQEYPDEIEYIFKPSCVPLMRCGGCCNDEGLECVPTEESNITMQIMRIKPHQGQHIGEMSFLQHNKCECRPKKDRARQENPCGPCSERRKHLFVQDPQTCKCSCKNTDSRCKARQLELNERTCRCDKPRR
row,IC50 [nM],Binder
1,188,Ac-VEPNCDIHVMWEWECFERL-NH2 (disulfide 5-15 (inferred)) [[VEGF-Peptide] SEQ ID NO:34]
2,325,Ac-VEPNCDIHVMWVWECFERLYGGW-NH2 (disulfide 5-15 (inferred)) [[VEGF-Peptide] SEQ ID NO:35]
3,59,Ac-VEPNCDIHVMWVWVCFERLFKEA-NH2 (disulfide 5-15 (inferred)) [[VEGF-Peptide] SEQ ID NO:37]
4,70,Ac-VEPNCDIHVMWVWECFERLYREL-NH2 (disulfide 5-15 (inferred)) [[VEGF-Peptide] SEQ ID NO:39]
5,172,Ac-VEPNCDIHVMWVWVCFERLFREA-NH2 (disulfide 5-15 (inferred)) [[VEGF-Peptide] SEQ ID NO:36]

# Target: T2, recombinant human VEGF165
# Assay: as above
# Remark: another data set of the same source
row,IC50 [nM],Binder
1,188,Ac-VEPNCDIHVMWEWECFERL-NH2 (disulfide 5-15 (inferred)) [[VEGF-Peptide] SEQ ID NO:34]

# Target: T1, human angiopoietin-2 protein
# Assay: reverse competition ELISA presumed: Ang-2 binding to coated Tie-2-Fc; peptide alone
# Description: Plates were washed three times with washing buffer (0.1% Tween 20, PBS, pH 7.4) and blocked with Superblock, 150 μl/well at RT for 1 hour. Plates were washed three times. […] Plates were washed 3 times, and 50 W of streptavidin HRP (1:200 dilution in Superblock) was added at RT for 20 minutes. Plates were washed 3 times, and […] (25 μl TMB+25 μl H₂O₂) substrate solution was added and incubated for 20-30 minutes. Color development was stopped with 25 μl of 2 M H₂SO₄. OD450 nm with a correction wavelength of 540 nm was measured.
row,IC50 [nM],Binder
1,14.4,QXYQPLDELDKTLYDQFMLQQG (N-terminal acyl cap; C-terminal amino cap; Kac 2) [Compound 4022]
2,36.4,QKYQPLDELDKTLYDQFMLQQG-NH2 (also: N-terminal acyl cap) [Compound 4021]
